According to patent US20260167728A1 (published 2026):

T1: cynomolgus monkey CD3 (cynomolgus monkey, UniProt Q95LI5 22-117)
T1 construct: also called Cyno CD3
T1 sequence: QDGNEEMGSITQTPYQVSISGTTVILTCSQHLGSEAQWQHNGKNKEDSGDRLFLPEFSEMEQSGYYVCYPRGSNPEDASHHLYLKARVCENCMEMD


Assays:
[1] = molecular target: T2, human CD3 (human, UniProt P07766 23-126); assay: SPR Biacore 37 C
[2] = molecular target: T3, cynomolgus monkey EGFR (cynomolgus monkey, UniProt A0A2K5WK39 25-645); assay: SPR Biacore 37 C
T3 construct: also called Cyno EGFR

[3] = molecular target: T1, cynomolgus monkey CD3; assay: SPR Biacore 37 C
[4] = molecular target: T4, human EGFR (human, UniProt P00533 25-645, limits assumed); assay: SPR Biacore 37 C
T4 construct: on HT-29 cells in the cytotoxicity assay; also called epidermal growth factor receptor

[5] = molecular target: T4, human EGFR; assay: BLI, room temperature
Procedure: Each construct was expressed in small-scale and purified. Thermal stability was determined by Differential Scanning Fluorimetry. Melting temperature (Tₘ) determined by Differential Scanning Fluorimetry experiments described herein were performed either in duplicate or triplicate using GloMelt™ dye and QuantStudio5™. GloMelt™ dye undergoes fluorescence enhancement upon binding to hydrophobic regions of denatured proteins. Therefore, the dye can be used to detect protein unfolding or measure thermal stability. GloMelt™ dye is optimized for detection in the SYBR® Green channel of qPCR instruments. The Differential Scanning Fluorimetry experiments were performed in 96-well plates with 10 μg protein/reaction (equal to 0.5 mg/mL final protein concentration), reaction buffer, and GloMelt™ 10× dye according to manufacturer's instructions. Fluorescence of 96-well plates was read and melt curve plots were generated in the QuantStudio5™ qPCR system. Binding affinity was analyzed with bio-layer interferometry at room temperature with human EGFR as the antigen.

[6] = molecular target: T2, human CD3; assay: method not stated

T2 sequence (P07766 23-126 limits assumed): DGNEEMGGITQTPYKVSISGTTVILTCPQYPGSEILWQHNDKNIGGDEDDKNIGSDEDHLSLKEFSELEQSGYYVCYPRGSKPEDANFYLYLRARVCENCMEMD

Row | Kd [1] [nM] | koff [1] [s⁻¹] | kon [1] [M⁻¹ s⁻¹] | Kd [2] [nM] | koff [2] [s⁻¹] | kon [2] [M⁻¹ s⁻¹] | Kd [3] [nM] | koff [3] [s⁻¹] | kon [3] [M⁻¹ s⁻¹] | Kd [4] [nM] | koff [4] [s⁻¹] | kon [4] [M⁻¹ s⁻¹] | Kd [5] [nM] | Kd [6] [nM] | Binder
1 | 57 | 0.18 | 3.1e+06 | 1.05 | 0.001 | 910000 | 167 | 0.18 | 1.1e+06 | 0.736 | 0.00077 | 1.04e+06 |  |  | AMX-525 (bispecific antibody, Fully masked paTCE; also called AC4230; EGFR.37/CD3.318 paTCE) ASSATPESGPGTSTEPSEGSAPGTSESATPESGPGSGPGTSESATPGTSESATPESGPGSEPATSGSETPGTSESATPESGPGTSTEPSEGSAPGSPAGSPTSTEEGTSESATPESGPGSEPATSGSETPGTSESATPESGPGSPAGSPTSTEEGSPAGSPTSTEEGTSTEPSEGSAPGTSESATPESGPGTSESATPESGPGTSESATPESGPGSEPATSGSETPGSEPATSGSETPGSPAGSPTSTEEGTSTEPSEGSAPGTSTEPSEGSAPGSEPATSGSETPGTSESATPEAGRSASHTPAGLTGPGTSESATPESDIQMTQSPSSLSASVGDRVTITCQASQDISNYLNWYQQKPGKAPKLLIYDASNLETGVPSRFSGSGSGTDFTFTISSLQPEDIATYYCQHFDHLPLAFGQGTKVEIKSESATPESGPGTSPGATPESGPGTSESATPQVQLQESGPGLVKPSETLSLTCTVSGGSVSSGDYYWTWIRQPPGKGLEWIGHIYYSGNTNYNPSLKSRVTISVDTSKNQFSLKLSSVTAADTAVYYCARDRVTGAFDIWGQGTLVTVSSGGGGSELVVTQEPSLTVSPGGTVTLTCRSSNGAVTSSNYANWVQQKPGQAPRGLIGGTNKRAPGTPARFSGSLLEGKAALTLSGVQPEDEAVYYCALWYPNLWVFGGGTKLTVLSESATPESGPGTSPGATPESGPGTSESATPEVQLVESGGGIVQPGGSLRLSCAASGFTFSTYAMNWVRQAPGKGLEWVGRIRTKRNDYATYYADSVKGRFTISRDDSKNTLYLQMNSLKTEDTAVYYCVRHENFGNSYVSWFAHWGQGTLVTVSSGTATPESGPGEAGRSASHTPAGLTGPATPESGPGTSESATPESGPGSPAGSPTSTEEGTSESATPESGPGSEPATSGSETPGTSESATPESGPGTSTEPSEGSAPGTSTEPSEGSAPGTSTEPSEGSAPGTSTEPSEGSAPGTSTEPSEGSAPGTSTEPSEGSAPGSPAGSPTSTEEGTSTEPSEGSAPGTSESATPESGPGSEPATSGSETPGTSESATPESGPGSEPATSGSETPGTSESATPESGPGTSTEPSEGSAPGTSESATPESGPGSPAGSPTSTEEGSPAGSPTSTEEGSPAGSPTSTEEGTSESATPESGPGTSTEPSEGSAPGTSESATPESGPGSEPATSGSETPGTSESATPESGPGSEPATSGSETPGTSESATPESGPGTSTEPSEGSAPGSPAGSPTSTEEGTSESATPESGPGSEPATSGSETPGTSESATPESGPGSPAGSPTSTEEGSPAGSPTSTEEGTSTEPSEGSAPGTSESATPESGPGTSESATPESGPGTSPSATPESGPGSEPATSGSETPGSEPATSGSETPGSPAGSPTSTEEGTSTEPSEGSAPGTSTEPSEGSAPGSEPATSGSETPGTSESAGEPEA
2 |  |  |  |  |  |  |  |  |  |  |  |  | 2.4 | ~203 | AC2909 (EGFR.61/CD3.23 paTCE) (bispecific antibody, EGFR library format (remarks)) scFv 1: EIVLTQSPGTLSLSPGERATLSCQASQDISNYLNWYQQKPGQAPRLLIYDASNLETGIPDRFSGSGSGTDFTLTISRLEPEDFAVYYCQHFDHLPLAFGQGTKVEIKGATPPETGAETESPGETTGGSAESEPPGEGQVQLQESGPGLVKPSETLSLTCTVSGGSVSSGDYYWTWIRQPPGKGLEWIGHIYYSGNTNYNPSLKSRVTISVDTSKNQFSLKLSSVTAADTAVYYCARDRVTGAFDIWGQGTLVTVSS scFv 2: ELVVTQEPSLTVSPGGTVTLTCRSSNGAVTSSNYANWVQQKPGQAPRGLIGGTNKRAPGTPARFSGSLLGGKAALTLSGVQPEDEAVYYCALWYPNLWVFGGGTKLTVLGATPPETGAETESPGETTGGSAESEPPGEGEVQLLESGGGIVQPGGSLKLSCAASGFTFNTYAMNWVRQAPGKGLEWVARIRSKYNNYATYYADSVKDRFTISRDDSKNTVYLQMNNLKTEDTAVYYCVRHENFGNSYVSWFAHWGQGTLVTVSS
3 |  |  |  |  |  |  |  |  |  |  |  |  | 2.45 | ~203 | AC2921 (EGFR.73/CD3.23 paTCE) (bispecific antibody, EGFR library format (remarks)) scFv 1: EIVLTQSPATLSLSPGERATLSCQASQDISNYLNWYQQKPGQAPRLLIYDASNLETGIPARFSGSGSGTDFTLTISSLEPEDFAVYYCQHFDHLPLAFGQGTKVEIKGATPPETGAETESPGETTGGSAESEPPGEGQVQLQESGPGLVKPSETLSLTCTVSGGSVSSGDYYWTWIRQPPGKGLEWIGHIYYSGNTNYNPSLKSRVTISVDTSKNQFSLKLSSVTAADTAVYYCARDRVTGAFDIWGQGTLVTVSS scFv 2: ELVVTQEPSLTVSPGGTVTLTCRSSNGAVTSSNYANWVQQKPGQAPRGLIGGTNKRAPGTPARFSGSLLGGKAALTLSGVQPEDEAVYYCALWYPNLWVFGGGTKLTVLGATPPETGAETESPGETTGGSAESEPPGEGEVQLLESGGGIVQPGGSLKLSCAASGFTFNTYAMNWVRQAPGKGLEWVARIRSKYNNYATYYADSVKDRFTISRDDSKNTVYLQMNNLKTEDTAVYYCVRHENFGNSYVSWFAHWGQGTLVTVSS
4 |  |  |  |  |  |  |  |  |  |  |  |  | 7.2 | ~203 | AC2897 (EGFR.49/CD3.23 paTCE) (bispecific antibody, EGFR library format (remarks)) scFv 1: DIQMTQSPSSLSASVGDRVTITCQASQDISNYLNWYQQKPGKAPKLLIYDASNLETGVPSRFSGSGSGTDFTLTISSLQPEDFATYYCQHFDHLPLAFGQGTKVEIKGATPPETGAETESPGETTGGSAESEPPGEGQVQLQESGPGLVKPSETLSLTCTVSGGSVSSGDYYWTWIRQPPGKGLEWIGHIYYSGNTNYNPSLKSRVTISVDTSKNQFSLKLSSVTAADTAVYYCARDRVTGAFDIWGQGTLVTVSS scFv 2: ELVVTQEPSLTVSPGGTVTLTCRSSNGAVTSSNYANWVQQKPGQAPRGLIGGTNKRAPGTPARFSGSLLGGKAALTLSGVQPEDEAVYYCALWYPNLWVFGGGTKLTVLGATPPETGAETESPGETTGGSAESEPPGEGEVQLLESGGGIVQPGGSLKLSCAASGFTFNTYAMNWVRQAPGKGLEWVARIRSKYNNYATYYADSVKDRFTISRDDSKNTVYLQMNNLKTEDTAVYYCVRHENFGNSYVSWFAHWGQGTLVTVSS
5 | 29.2 | 0.128 | 4.4e+06 | 0.042 | 0.00017 | 4.1e+06 | 28 | 0.14 | 5e+06 | 0.034 | 0.00023 | 6.45e+06 |  |  | AMX-525 (uTCE) (bispecific antibody, Fully unmasked metabolite; also called unmasked AMX-525; not shown: remnant of cleaved RSR-3213) GTSESATPESDIQMTQSPSSLSASVGDRVTITCQASQDISNYLNWYQQKPGKAPKLLIYDASNLETGVPSRFSGSGSGTDFTFTISSLQPEDIATYYCQHFDHLPLAFGQGTKVEIKSESATPESGPGTSPGATPESGPGTSESATPQVQLQESGPGLVKPSETLSLTCTVSGGSVSSGDYYWTWIRQPPGKGLEWIGHIYYSGNTNYNPSLKSRVTISVDTSKNQFSLKLSSVTAADTAVYYCARDRVTGAFDIWGQGTLVTVSSGGGGSELVVTQEPSLTVSPGGTVTLTCRSSNGAVTSSNYANWVQQKPGQAPRGLIGGTNKRAPGTPARFSGSLLEGKAALTLSGVQPEDEAVYYCALWYPNLWVFGGGTKLTVLSESATPESGPGTSPGATPESGPGTSESATPEVQLVESGGGIVQPGGSLRLSCAASGFTFSTYAMNWVRQAPGKGLEWVGRIRTKRNDYATYYADSVKGRFTISRDDSKNTLYLQMNSLKTEDTAVYYCVRHENFGNSYVSWFAHWGQGTLVTVSSGTATPESGPG
